{
  "source": "patent US7460961B2",
  "about": "“N-TRADD active site and uses thereof” (Genetics Institute, LLC, priority 2000, dated 2008)",
  "molecules": {"B1": {"name": "N-TRADD: N-terminal domain (amino acid residues 1-169, SEQ ID NO:1) of human TNFR-1 associated death domain protein (protein)", "chain": "MAAGQNGHEWVGSAYLFVESSLDKVVLSDAYAHPQQKVAVYRALQAALAESGGSPDVLQMLKIHRSDPQLIVQLRFCGRQPCGRFLRAYREGALRAALQRSLAAALAQHSVPLQLELRAGAERLDALLADEERCLSCILAQQPDRLRDEELAELEDALRNLKCGSGAR"}},
  "target": "T1, C-TRAF2 (residues 262 to 501 of human TRAF2) (Homo sapiens, UniProt Q12933)",
  "T1 construct": "C-TRAF2 (residues 262-501) was purified and coupled to a sensor chip CM5; initiator Met added before residue 262 (N); 6xHis (C); made in house; host or cells: baculovirus in 'Tini' cells (insect cells), vector pAcSG2",
  "T1 sequence (Q12933 262-501)": "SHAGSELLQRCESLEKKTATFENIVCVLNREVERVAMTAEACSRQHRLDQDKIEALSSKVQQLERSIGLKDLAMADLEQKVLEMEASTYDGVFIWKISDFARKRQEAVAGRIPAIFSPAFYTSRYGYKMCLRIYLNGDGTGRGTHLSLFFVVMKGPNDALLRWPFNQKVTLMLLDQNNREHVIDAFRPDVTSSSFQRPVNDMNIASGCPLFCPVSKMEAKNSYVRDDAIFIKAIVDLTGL",
  "assay": "BIAcore surface plasmon resonance binding to immobilised C-TRAF2",
  "details": "C-TRAF2 coupled to CM5 chip, read-out: Kd of the interaction between N-TRADD and C-TRAF2",
  "procedure": "C-TRAF2 and N-TRADD binding studies: The affinity of wild-type N-TRADD and C-TRAF2 was measured by surface plasma resonance using a BIAcore 2000 system (Pharmacia Biosensor AB). C-TRAF2 (residues 262-501) was purified and coupled to a sensor chip CM5 by amine coupling at pH=5.0 to get about 800, 1500 and 5500 response units on three different flow cells. A constant flow (20 μL/min) of purified N-TRADD protein in 10 mM Hepes, pH=7.4, 150 mM NaCl, 3.4 mM EDTA and 0.05% P20 surfactant at 8 different concentrations from 650 μM to 84 μM was applied over the protein coupled chip for 2 min to analyze the association. Binding constants were obtained from the BIAevaluation software.\nThe ^1H-^15N HSQC of N-TRADD was used as a tool to map the binding interface with C-TRAF2, since the chemical shifts of contact residues will be perturbed upon complex formation. […] The C-TRAF2 (residues 262-501) used in the instant HSQC titration experiment (at 120 μM) is also a trimer, as determined by size exclusion chromatography. […] N-TRADD Mutagenesis and interactions between C-TRAF2 and N-TRADD: In order to further characterize the amino acids in N-TRADD that are involved in C-TRAF2 recognition, site directed mutants of N-TRADD were prepared and evaluated for their ability to bind C-TRAF2. […]\nThe affinity of N-TRADD mutants to C-TRAF2 was measured by BIAcore. […]",
  "data": [
    {"molecule": "B1", "values": [
      {"measurement": "Kd", "result": 6, "unit": "µM"}
    ]}
  ]
}
